Assays:
[1] = biological target: TnmJ (Streptomyces sp. CB03234); experiment: crystal structure
[2] = biological target: TnmJ (Streptomyces sp. CB03234); experiment: SEC
TnmJ = experiment: isothermal titration calorimetry; assay type: binding, Streptomyces sp. CB03234; conditions: native substrate

Row | stoichiometry N [1] | stoichiometry N [2] | Substance | Kd (TnmJ)
1 | 2 | 2 | TnmJ (enzyme) | –
2 | – | – | TNM I [compound 8] | 3.4 µM

Reference: article PMC11623921 (Nature chemical biology, 2023)
